According to patent US20050026822A1 (HOWARD FLOREY INSTITUTE OF EXPERIMENTAL PHYSIOLOGY AND …, published 2005):
Bridge positions count the residues as written; N and C are the ends. Ends that are not written are not given here. I, II: the chains in the order shown.

B1: Recombinant human H2 relaxin (ligand)
chain 1: QLYSALANKCCHVGCTKRSLARFC
chain 2: DSWMEEVIKLCGRELVRAQIAICGMSTWS
modifications: not fully specified (bridges); ends and bridges not checked
notes: mature; Gift from Connetics Corporation; also called human 2 relaxin
B2: Synthetic human H3 relaxin [hRlx-3 A(1-24) amide-B(1-27) amide] (ligand)
chain 1: DVLAGLSSSCCKWGCSKSEISSLC-NH2
chain 2: RAAPYGVRLCGREFIRAVIFTCGGSRW-NH2
modifications: disulfide I:10-I:15, I:11-II:10, I:24-II:22
notes: Made by solid phase synthesis; also called human 3 relaxin; synthetic H3 relaxin C-terminal amide derivative
B3: Synthetic human H1 relaxin (ligand)
chain 1: RPYVALFEKCCLIGCTKRSLAKYC
chain 2: KWKDDVIKLCGRELVRAQIAICGMSTWS
notes: mature; Synthesized previously (Wade et al 1996); also called human 1 relaxin

Molecular target: T1, Human relaxin receptor on THP-1 cells (human, UniProt Q9HBX9 1-757)
T1 sequence (looked up): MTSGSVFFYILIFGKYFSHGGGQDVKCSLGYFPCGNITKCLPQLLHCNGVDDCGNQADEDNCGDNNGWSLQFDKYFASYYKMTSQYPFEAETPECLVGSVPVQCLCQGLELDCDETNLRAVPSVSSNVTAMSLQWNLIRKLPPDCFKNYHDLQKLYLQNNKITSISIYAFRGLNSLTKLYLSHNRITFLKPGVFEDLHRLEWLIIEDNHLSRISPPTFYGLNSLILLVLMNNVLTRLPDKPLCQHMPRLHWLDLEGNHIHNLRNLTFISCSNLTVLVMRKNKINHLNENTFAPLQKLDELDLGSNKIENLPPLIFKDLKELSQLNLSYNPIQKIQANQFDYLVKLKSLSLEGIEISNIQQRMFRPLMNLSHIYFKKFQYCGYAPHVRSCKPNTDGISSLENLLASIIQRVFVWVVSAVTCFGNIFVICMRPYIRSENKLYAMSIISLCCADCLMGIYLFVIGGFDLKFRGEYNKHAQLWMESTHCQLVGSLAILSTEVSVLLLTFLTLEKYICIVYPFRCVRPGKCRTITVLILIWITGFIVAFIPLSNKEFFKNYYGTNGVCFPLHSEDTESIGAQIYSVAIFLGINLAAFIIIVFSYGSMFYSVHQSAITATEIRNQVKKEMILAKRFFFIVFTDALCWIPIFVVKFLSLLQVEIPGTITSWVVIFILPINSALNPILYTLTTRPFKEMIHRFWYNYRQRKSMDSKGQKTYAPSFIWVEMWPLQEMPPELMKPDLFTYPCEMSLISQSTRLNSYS
Experiment: cell-based or functional assay

Binder	cAMP production in THP-1 cells, EC50 [nM]	cAMP production in THP-1 cells, pEC50
B1	0.214	9.67
B2	2.11	8.68
B3	0.794	9.1

Molecular target: T1, Human relaxin receptor on THP-1 cells
Experiment: competition with 33P-labeled H2 (B33) relaxin (100 pM) for binding to THP-1 cells
Procedure: THP-1 Cell Binding Assay—THP-1 cells were spun down and resuspended in binding buffer (20 mM HEPES, 50 mM NaCl, 1.5 mM CaCl₂, 1% BSA, 0.1 mg/ml lysine, 0.01% […], pH 7.5) (Parsell et al (1996) J. Biol. Chem. 271, 27936-27941) to give 2×10⁶ cells/well in a 96-well plate. The cells were incubated in binding buffer with ³³P-labeled H2 (B33) relaxin (100 pM: labeled as previously described (Tan et al (1999) Br. J. Pharmacol. 127, 91-98) at 25° C. for 90 min in the absence or presence of increasing concentrations of unlabeled H1, H2 and H3 relaxin (100 pM to 30 nM). Non-specific binding was defined with H2 relaxin (1 μM. Cells were harvested using a Packard 96-well plate cell harvester and Whatman GF/C glass fibre filters treated with 0.5% polyethylenimine. The filters were washed three times with modified binding buffer (20 mM HEPES, 50 mM NaCl, 1.5 mM CaCl₂), dried in a 37° C. oven, and the radioactivity counted by liquid scintillation spectrometry (TopCount™, Canberra Packard, Australia).

Binder	pKi
B1	8.74
B2	7.5
B3	8.9
